# ± gives the uncertainty stated by the source.
# Test: protein stability index of a GFP-peptide fusion (yeast GPS) (PSI 1-4); higher = more stable; sorted into four equal gates, so the index is relative within each strain
# Method in brief: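 Plasmids in a pooled yeast library fused tiled 17-residue yeast protein peptides downstream of GFP and also expressed Cherry. Mid-log cultures grown without leucine were sorted into four equal gates by GFP/Cherry fluorescence ratio. Each gate's plasmids were PCR-amplified and Illumina-sequenced, and reads were matched to strains by barcodes. The protein stability index is derived by multiplying each gate's read frequency by its gate number and summing the results.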
sequence,measurement,setting,value
DMDGVDFNQAFEGTDDN [BRN1],protein stability index,doa10∆,2.97 ± 0.094
same,protein stability index,pdr5∆,3.04 ± 0.091
same,protein stability index,san1∆,3.35 ± 0.094
same,protein stability index,ubr1∆,3.17 ± 0.072
VVVVLEEPSASIMVELK [SIR3],protein stability index,doa10∆,2.95 ± 0.083
same,protein stability index,pdr5∆,2.99 ± 0.16
same,protein stability index,san1∆,3.28 ± 0.065
same,protein stability index,ubr1∆,2.86 ± 0.2
AYPAAREQFLNAQDIDH [FAS1],protein stability index,doa10∆,3.13 ± 0.082
same,protein stability index,pdr5∆,3.15 ± 0.11
same,protein stability index,san1∆,2.84 ± 0.11
same,protein stability index,ubr1∆,3.21 ± 0.054
RAVLTPLITRHCYPRQL [RRP46],protein stability index,doa10∆,2.4 ± 0.048
same,protein stability index,pdr5∆,2.18 ± 0.037
same,protein stability index,san1∆,2.36 ± 0.052
same,protein stability index,ubr1∆,2.39 ± 0.033
KKNIDYQNRSTRSQFCL [RRI1],protein stability index,doa10∆,3.01 ± 0.039
same,protein stability index,pdr5∆,2.94 ± 0.04
same,protein stability index,san1∆,2.88 ± 0.034
same,protein stability index,ubr1∆,3.079 ± 0.026
LVNGFSQSQQKLLKEKV [MED2],protein stability index,doa10∆,2.03 ± 0.055
same,protein stability index,pdr5∆,2.27 ± 0.068
same,protein stability index,san1∆,2.41 ± 0.066
same,protein stability index,ubr1∆,2.61 ± 0.052
AFDVDRAKSCGVDAMSV [RPL1A],protein stability index,doa10∆,2.79 ± 0.092
same,protein stability index,pdr5∆,2.73 ± 0.094
same,protein stability index,san1∆,2.76 ± 0.091
same,protein stability index,ubr1∆,2.71 ± 0.055
PNVCNMKQYRDFLGVAS [PRP28],protein stability index,doa10∆,1.99 ± 0.14
same,protein stability index,pdr5∆,2.26 ± 0.091
same,protein stability index,san1∆,2.37 ± 0.077
same,protein stability index,ubr1∆,1.99 ± 0.072
MAPFRQDSILIIYPRSQ [ARP9],protein stability index,doa10∆,2.41 ± 0.28
same,protein stability index,pdr5∆,2.69 ± 0.17
same,protein stability index,san1∆,2.82 ± 0.083
same,protein stability index,ubr1∆,2.58 ± 0.076
MNGNGKPGIPRGNTKIH [SIR3],protein stability index,pdr5∆,2.83 ± 0.23
same,protein stability index,san1∆,3.32 ± 0.094
same,protein stability index,ubr1∆,3.25 ± 0.18
ASKSGKLTQKLVTAGVA [CYT1],protein stability index,doa10∆,1.85 ± 0.068
same,protein stability index,pdr5∆,1.83 ± 0.057
same,protein stability index,san1∆,2.45 ± 0.062
same,protein stability index,ubr1∆,1.95 ± 0.048
LQPFWFRVNNASINTSA [ECM29],protein stability index,doa10∆,1.66 ± 0.1
same,protein stability index,pdr5∆,1.49 ± 0.068
same,protein stability index,san1∆,1.26 ± 0.16
same,protein stability index,ubr1∆,1.49 ± 0.071
KKMVYVLDSMTKEELES [SRP54],protein stability index,doa10∆,3.02 ± 0.086
same,protein stability index,pdr5∆,2.85 ± 0.085
same,protein stability index,san1∆,2.92 ± 0.091
same,protein stability index,ubr1∆,3.04 ± 0.069
VELHGKRKLDIGKDTFV [PRP8],protein stability index,doa10∆,3.26 ± 0.29
same,protein stability index,pdr5∆,2.94 ± 0.13
same,protein stability index,san1∆,2.47 ± 0.17
same,protein stability index,ubr1∆,2.21 ± 0.11
QLIKVAVHNGDRKHVAA [RPL9B],protein stability index,doa10∆,2.09 ± 0.054
same,protein stability index,pdr5∆,2.48 ± 0.059
same,protein stability index,san1∆,2.28 ± 0.061
same,protein stability index,ubr1∆,2.65 ± 0.027
LKIIHTSVWAGQKRLSQ [PRP8],protein stability index,doa10∆,1.36 ± 0.15
same,protein stability index,pdr5∆,1.31 ± 0.12
same,protein stability index,ubr1∆,1.48 ± 0.23
SIPMGGQSINDSLKKLL [ARP9],protein stability index,doa10∆,2.39 ± 0.06
same,protein stability index,pdr5∆,2.46 ± 0.063
same,protein stability index,san1∆,2.47 ± 0.08
same,protein stability index,ubr1∆,2.61 ± 0.056
ELGVSIYDFPGTPEATK [NUT2],protein stability index,doa10∆,2.92 ± 0.076
same,protein stability index,pdr5∆,3.06 ± 0.098
same,protein stability index,san1∆,3.06 ± 0.078
same,protein stability index,ubr1∆,3.04 ± 0.048
VHPIPDVAFADGGKTLR [YMR129W/POM152],protein stability index,doa10∆,2.5 ± 0.064
same,protein stability index,pdr5∆,2.68 ± 0.086
same,protein stability index,san1∆,2.66 ± 0.084
same,protein stability index,ubr1∆,2.63 ± 0.051
DPNLSFESSSSLPFLLR [SSN2],protein stability index,doa10∆,3.07 ± 0.16
same,protein stability index,pdr5∆,3.19 ± 0.13
same,protein stability index,san1∆,2.94 ± 0.1
same,protein stability index,ubr1∆,2.82 ± 0.13
TKLKNAVQNESVSSPIE [QCR2],protein stability index,doa10∆,3.05 ± 0.11
same,protein stability index,pdr5∆,3.1 ± 0.084
same,protein stability index,san1∆,3.25 ± 0.094
same,protein stability index,ubr1∆,3.05 ± 0.067
TEFSKNDLEVGVATKDK [SCL1],protein stability index,doa10∆,2.95 ± 0.079
same,protein stability index,pdr5∆,3.03 ± 0.068
same,protein stability index,san1∆,2.63 ± 0.088
same,protein stability index,ubr1∆,2.71 ± 0.075
MMEEIINVVIKASRKSV [ECM29],protein stability index,doa10∆,1.76 ± 0.073
same,protein stability index,pdr5∆,1.75 ± 0.068
same,protein stability index,san1∆,2.04 ± 0.21
same,protein stability index,ubr1∆,1.53 ± 0.12
SLTISLYASDYASYFPY [RPN7],protein stability index,doa10∆,1.42 ± 0.036
same,protein stability index,pdr5∆,1.64 ± 0.035
same,protein stability index,san1∆,1.6 ± 0.049
same,protein stability index,ubr1∆,1.67 ± 0.028
NLEPLIAKLVAVLNVSP [NUT1],protein stability index,doa10∆,1.47 ± 0.064
same,protein stability index,pdr5∆,1.38 ± 0.066
same,protein stability index,san1∆,1.69 ± 0.14
same,protein stability index,ubr1∆,1.43 ± 0.057
LNIGKNFAHSDSLSVPK [SIR4],protein stability index,doa10∆,3.17 ± 0.085
same,protein stability index,pdr5∆,3 ± 0.075
same,protein stability index,san1∆,3.12 ± 0.042
same,protein stability index,ubr1∆,3.2 ± 0.05
QLKFEGFALNSDIVFIH [BRR2],protein stability index,doa10∆,1.87 ± 0.064
same,protein stability index,pdr5∆,1.71 ± 0.061
same,protein stability index,san1∆,2.06 ± 0.065
same,protein stability index,ubr1∆,1.81 ± 0.036
MLLLNIFISSDHEFVLI [YMR129W/POM152],protein stability index,doa10∆,1.64 ± 0.057
same,protein stability index,pdr5∆,1.28 ± 0.055
same,protein stability index,san1∆,1.32 ± 0.098
same,protein stability index,ubr1∆,1.23 ± 0.057
TKKISNFNSSLHKRQQF [YJL039C/NUP192],protein stability index,doa10∆,2.73 ± 0.13
same,protein stability index,pdr5∆,2.79 ± 0.12
same,protein stability index,san1∆,1.4 ± 0.18
same,protein stability index,ubr1∆,1.6 ± 0.11
IVKGNIIDEIKCIPKKG [POP4],protein stability index,doa10∆,1.79 ± 0.05
same,protein stability index,pdr5∆,1.9 ± 0.05
same,protein stability index,san1∆,2.29 ± 0.06
same,protein stability index,ubr1∆,2.09 ± 0.045
HSISEAENMLEELRGQQ [SMC4],protein stability index,doa10∆,3.27 ± 0.094
same,protein stability index,pdr5∆,2.52 ± 0.18
same,protein stability index,san1∆,3.35 ± 0.068
same,protein stability index,ubr1∆,3.2 ± 0.079
STAIKSLVALGIDPQDL [CDC53],protein stability index,doa10∆,2.29 ± 0.077
same,protein stability index,pdr5∆,2.67 ± 0.066
same,protein stability index,san1∆,2.81 ± 0.053
same,protein stability index,ubr1∆,2.45 ± 0.049
NGKEVPLAKIYLEENKS [MED1],protein stability index,doa10∆,3.2 ± 0.1
same,protein stability index,pdr5∆,3.27 ± 0.071
same,protein stability index,san1∆,3.12 ± 0.075
same,protein stability index,ubr1∆,3.21 ± 0.063
RKTLKEKAIPKDQRATT [RPO26],protein stability index,doa10∆,3.06 ± 0.057
same,protein stability index,pdr5∆,3.18 ± 0.064
same,protein stability index,san1∆,3.04 ± 0.049
same,protein stability index,ubr1∆,3.31 ± 0.07
LMLEDAVTEREVLVTPG [MCD1],protein stability index,doa10∆,1.94 ± 0.2
same,protein stability index,san1∆,2.16 ± 0.13
same,protein stability index,ubr1∆,2.18 ± 0.27
GLMLGEFVDDYTVNVVD [RPN11],protein stability index,doa10∆,3.32 ± 0.13
same,protein stability index,pdr5∆,3.26 ± 0.1
same,protein stability index,san1∆,3.13 ± 0.14
same,protein stability index,ubr1∆,3.09 ± 0.076
KEILDNILPFLWGPHGL [ECM29],protein stability index,doa10∆,2.67 ± 0.24
same,protein stability index,pdr5∆,3.09 ± 0.24
same,protein stability index,ubr1∆,3.37 ± 0.17
GNIISSDKTIVPTSIQT [SIN4],protein stability index,doa10∆,2.42 ± 0.061
same,protein stability index,pdr5∆,2.61 ± 0.054
same,protein stability index,san1∆,2.1 ± 0.076
same,protein stability index,ubr1∆,2.77 ± 0.051
VIVPLSTLSNWSSEFAK [SNF2],protein stability index,doa10∆,2.65 ± 0.049
same,protein stability index,pdr5∆,2.35 ± 0.06
same,protein stability index,san1∆,2.52 ± 0.051
same,protein stability index,ubr1∆,2.6 ± 0.038
SEDDSESGKVFIGRLPI [RPB2],protein stability index,doa10∆,3.36 ± 0.08
same,protein stability index,pdr5∆,3.19 ± 0.073
same,protein stability index,san1∆,3.31 ± 0.055
same,protein stability index,ubr1∆,3.29 ± 0.043
GSNKAQISIIDIWSISK [YML031W/NDC1],protein stability index,doa10∆,2.55 ± 0.056
same,protein stability index,pdr5∆,2.76 ± 0.054
same,protein stability index,san1∆,2.88 ± 0.054
same,protein stability index,ubr1∆,2.97 ± 0.048
SRGIVIGSGAMSPLECR [RPP1],protein stability index,doa10∆,1.69 ± 0.031
same,protein stability index,pdr5∆,2.34 ± 0.048
same,protein stability index,san1∆,2.12 ± 0.069
same,protein stability index,ubr1∆,2.44 ± 0.036
CYEKVLESINEGNQIIV [BRR2],protein stability index,doa10∆,3.09 ± 0.11
same,protein stability index,pdr5∆,2.59 ± 0.11
same,protein stability index,san1∆,2.05 ± 0.093
same,protein stability index,ubr1∆,2.34 ± 0.1
KNESATINEMMKHLGRS [FAS2],protein stability index,doa10∆,2.6 ± 0.082
same,protein stability index,pdr5∆,2.87 ± 0.087
same,protein stability index,san1∆,2.65 ± 0.062
same,protein stability index,ubr1∆,2.81 ± 0.095
DKKLLRRLLNLYNDNNK [SWI1],protein stability index,doa10∆,2.48 ± 0.088
same,protein stability index,pdr5∆,2.62 ± 0.072
same,protein stability index,san1∆,2.57 ± 0.085
same,protein stability index,ubr1∆,2.6 ± 0.068
FRLIDTGALINNLEPRQ [RPN11],protein stability index,doa10∆,2.81 ± 0.23
same,protein stability index,pdr5∆,3.18 ± 0.24
LRFGEGASGEERLMSRP [PUP2],protein stability index,doa10∆,3.52 ± 0.15
same,protein stability index,pdr5∆,3.36 ± 0.12
same,protein stability index,san1∆,3.21 ± 0.1
same,protein stability index,ubr1∆,3.23 ± 0.065
LDKNLIKLVKQNDELKF [RPC34],protein stability index,doa10∆,1.16 ± 0.077
same,protein stability index,pdr5∆,1.21 ± 0.073
same,protein stability index,san1∆,1.43 ± 0.18
same,protein stability index,ubr1∆,2.18 ± 0.1
LIKKAVSVRKHLERNRK [RPS13],protein stability index,doa10∆,3.43 ± 0.26
same,protein stability index,pdr5∆,3.32 ± 0.11
same,protein stability index,ubr1∆,3.28 ± 0.1
YSRITLIIDDPSKGQSL [RPP1],protein stability index,doa10∆,2.09 ± 0.056
same,protein stability index,pdr5∆,2.44 ± 0.063
same,protein stability index,san1∆,2.42 ± 0.048
same,protein stability index,ubr1∆,2.78 ± 0.053
RQVYKPVLDNPFTNEAH [POP3],protein stability index,doa10∆,2.47 ± 0.073
same,protein stability index,pdr5∆,2.67 ± 0.067
same,protein stability index,san1∆,2.46 ± 0.082
same,protein stability index,ubr1∆,2.88 ± 0.04
FKVYEPLLLVGLDKFSN [RPS16A],protein stability index,doa10∆,1.72 ± 0.058
same,protein stability index,pdr5∆,1.96 ± 0.055
same,protein stability index,san1∆,1.85 ± 0.074
same,protein stability index,ubr1∆,2.14 ± 0.043
YSRSVDKEWVFAALSDS [SSN2],protein stability index,doa10∆,1.44 ± 0.088
same,protein stability index,pdr5∆,1.25 ± 0.06
same,protein stability index,san1∆,1.41 ± 0.12
same,protein stability index,ubr1∆,1.3 ± 0.043

# Reference: the supplement of paper PMC9732359
